Results taken from the RNAGym collection of RNA variant scans (doi:10.1073/pnas.2313332121).

B1: TPR t1 (parent)
chain: GACCAAUCUGCCCUCAGAGCUCGAGAACAUCUUCGGAUGCAGAGGAGGCAGGCUUCGGUGGCGCGAUAGCGCCAACGUCCUCAACCUCCAAUGCAUCCCACCACAUGAUGAUGCCUGAAGAGCCUUGGUUUUUUG

Variants of: B1
Assay: polymerase ribozyme fitness, log enrichment relative to wild type (log ratio); higher = more active; in vitro selection for triplet polymerase activity
Outline: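 Mutant libraries for each subunit of a heterodimeric triplet polymerase ribozyme were made by PCR and then transcribed. Each library underwent one round of in vitro selection in triplicate: annealing with a biotinylated primer, the partner subunit and triplets, frozen incubation at −7 °C, gel excision of extended constructs, streptavidin-bead capture and RT-PCR. Input and output libraries were Illumina-sequenced, and only genotypes with ≥10 input reads and ≥1 read per output were kept. Fitness is the logarithm, base 2, of genotype enrichment over wild-type enrichment, computed from inverse-variance-weighted replicate averages.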

Point of comparison: GACCAAUCUGCCCUCAGAGCUCGAGAACAUCUUCGGAUGCAGAGGAGGCAGGCUUCGGUGCCGCGAUAGCGCCAACGUCCUCAACCUCCAAUGCAUCCCACCACAUUAUGAUGCCUGAAGAGCCUUGGUUUUUUG, “polymerase ribozyme fitness (log ratio)” value -7.35. Against it:
- GACCAAUCUGCCCUCAGAGCUCGAGAACAUCUUCGGAUGCAGAGGAGGCAGGCUUCGGUGCCGCGAUAGCGCCAACGUCCUCAACCUCCAAUGCAUCCCACCACAUGAUGAUGCCUCAAGAGCCUUGGUUUUUUG — higher, -3.51
- GACCAAUCUGCCCUCAGAGCUCGAGAACAUCUUCGGAUGCAGAGGAGGCAGGCUUCGGUGCCGCGAUAGCGCCAACGUCCUCAACCUCCAAUGCAUCCCACCACAUGAUGAUGCCUUAAGAGCCUUGGUUUUUUG — higher, -4.38
- GACCAAUCUGCCCUCAGAGCUCGAGAACAUCUUCGGAUGCAGAGGAGGCAGGCUUCGGUGCCGCGAUAGCGCCAACGACCUCAACCUCCAAUGCAUCCCACCACAAGAUGAUGCCUGAAAAGCCUUGGUUUUUUG — higher, 0.446
- GACCAAUCUGCCCUCAGAGCUCGAGAACAUCUUCGGAUGCAGAGGAGGCAGGCUUCGGUGUCGCGCUAGCGCCAACGUCCUCAACCUCCAAAGCAUCCCACCACAUGAUGAUGCCUGAAGAGCCUUGGUUUUUUG — higher, -4.97
- GACCAAUCUGCCCUCAGAGCUCGAGAACAUCUUCGGAUGCAGAGGAGGCAGGCUUCGGUGUCGCGCUAGCGCCAACGUCCUCAACCUCCAACGCAUCCCACCACAUGAUGAUGCCUGAAGAGCCUUGGUUUUUUG — higher, -2.21
- GACCAAUCUGCCCUCAGAGCUCGAGAACAUCUUCGGAUGCAGAGGAGGCAGGCUUCGGUGCCGCGAUAGCGCCAACGGCCUCAACCUCCAAUGCAUCCCACCACAUGAUGUUGCCUGAAGAGCCUUGGUUAUUUG — higher, -5.71
- GACCAAUCUGCCCUCAGAGCUCGAGAACAUCUUCGGAUGCAGAGGAGGCAGGCUUCGGUGCCGCGAUAGCGCCAACGUCCUCAACCUCCAAUGCAUCCCACCACAUGAUGAUGCCUGAAGAGUCUUGGUUUUUUG — higher, -0.994
- GACCAAUCUGCCCUCAGAGCUCGAGAACAUCUUCGGAUGCAGAGGAGGCAGGCUUCGGUGCCGCGAUAGCGCCAACGUCCUCAACCUCCAAUGCAUCCCACCACAUGAUGAUGCCUGAAUAGCCUUGGUUUUUUG — higher, -1.08
- GACCAAUCUGCCCUCAGAGCUCGAGAACAUCUUCGGAUGCAGAGGAGGCAGGCUUCGGUGCCGCGAUAGCGCCAACGUCCUCAACCUCCAAUGCAUCCCACCACAUGAUGAUCCCUGAAGAGCCUUGGUUUUUUG — higher, -3.19
- GACCAAUCUGCCCUCAGAGCUCGAGAACAUCUUCGGAUGCAGAGGAGGCAGGCUUCGGUGCCGCGAUAGCGCCAACGUCCUCAACCUCCAAUGCAUCCCACCACAUGAUGAUACCUGAAGAGCCUUGGUUUUUUG — higher, -2.26
- GACCAAUCUGCCCUCAGAGCUCGAGAACAUCUUCGGAUGCAGAGGAGGCAGGCUUCGGUGUCGCGAUAGCGCCACCGUCCUCAACCUCCAAUGCAUCCCACCACAUGAUGAUGCCUGAAGAGCCUUGGUUUUUUG — higher, -0.117
- GACCAAUCUGCCCUCAGAGCUCGAGAACAUCUUCGGAUGCAGAGGAGGCAGGCUUCGGUGUCGCGAUAGCGCCUACGUCCUCAACCUCCAAUGCAUCCCACCACAUGAUGAUGCCUGAAGAGCCUUUGUUUUUUG — higher, -4.02
- GACCAAUCUGCCCUCAGAGCUCGAGAACAUCUUCGGAUGCAGAGGAGGCAGGCUUCGGUGCCGCGAUAGCGCCAACGUCCUCAACCUCCAAUGCAUCCCACCACAUGAUGAUGCCUGAAGAGCCAUGGUUUUUUG — higher, -1.89
- GACCAAUCUGCCCUCAGAGCUCGAGAACAUCUUCGGAUGCAGAGGAGGCAGGCUUCGGUGCCGCGAUAGCGCCAACGUCCUCAACCUCCAAUGCAUCCCACCACAUGAUGAUGCCUGAAGAACCUCGGUUUUUUU — higher, -4.38
- GACCAAUCUGCCCUCAGAGCUCGAGAACAUCUUCGGAUGCAGAGGAGGCAGGCUUCGGUGCCGCGAUAGCGCCAACGUCCUCAACCUCCAAUGCAUCCCACCACAUGAUGAUGCCUGAAGAGCCUUGGUUUUAUG — higher, -1.7
- GACCAAUCUGCCCUCAGAGCUCGAGAACAUCUUCGGAUGCAGAGGAGGCAGGCUUCGGUGCCGCGAUAGCGCCAACGUCCUCAACCUCCAAUGCAUCCCACCACAUGAUGAUGCCUGAAGAGCCUUAGUUUUUUG — higher, -2.71
- GACCAAUCUGCCCUCAGAGCUCGAGAACAUCUUCGGAUGCAGAGGAGGCAGGCUUCGGUGCCGCGAUAGCGCCAACGUCCUCAACCUCCAAUGCAUCCCACCACAUGAUGAUGCCUGAAGAGCCUUAGAUUUUUG — higher, -2.95
- GACCAAUCUGCCCUCAGAGCUCGAGAACAUCUUCGGAUGCAGAGGAGGCAGGCUUCGGUGCCGCGAUAGCGCCAACGUCCUCAACCUCCAAUGCAUCCCACCACAUGAUGAUGCCUGAAGAACCUUGUUUUUUUU — higher, -3.92
- GACCAAUCUGCCCUCAGAGCUCGAGAACAUCUUCGGAUGCAGAGGAGGCAGGCUUCGGUGCCGCGAUAGCGCCAACGUCCACAACCUCCAAUGCAUCCCACCACAUGAUGAUGCCUGAAGAGCCUUGGUUUUUUG — higher, -3.2
- GACCAAUCUGCCCUCAGAGCUCGAGAACAUCUUCGGAUGCAGAGGAGGCAGGCUUCGGUGCCGCGAUAGCUCCAACGUCCUCAACCUCCAAUGCAUCCCACCACAUGAUGAUGCCUGAAGAGCCUUGGUUUUUUG — higher, -3.13
- GACCAAUCUGCCCUCAGAGCUCGAGAACAUCUUCGGAUGCAGAGGAGGCAGGCUUCGGUGCCGCGAUAGCACCAACGUCCUCAACCUCCAAUGCAUCCCACCACAUGAUGAUGCCUGAAGAGCCUUGGUUUUUUG — higher, -4.05
- GACCAAUCUGCCCUCAGAGCUCGAGAACAUCUUCGGAUGCAGAGGAGGCAGGCUUCGGUGUCGCGAUAGCGCCCACGUCCUCAACCUCCAAUGCAUCCCACCACAUGAUGAUGCCUGAAGAGGCUUGGUUUUUUG — higher, -5.28
- GACCAAUCUGCCCUCAGAGCUCGAGAACAUCUUCGGAUGCAGAGGAGGCAGGCUUCGGUGCCGCGAUAGCGCCAACGUCCUCAACCUCCAAUGCAUCCCACCACAUGAUAAUGCCUGAAGAGCCUUGGUUUUUUG — higher, -3.32
- GACCAAUCUGCCCUCAGAGCUCGAGAACAUCUUCGGAUGCAGAGGAGGCAGGCUUCGGUGCCGCGAUAGCGCCAACGUCCUCAACCUCCAAUGCAUCCCACCACAUGAUCAUGCCUGAAGAGCCUUGGUUUUUUG — higher, -5.94
- GACCAAUCUGCCCUCAGAGCUCGAGAACAUCUUCGGAUGCAGAGGAGGCAGGCUUCGGUGCCGCGAUAGCGCCAACGCCCUCAACCUCCAAUGCAUCCCACCACAUGAUGAUGCCUGAAGAGCCUUGGUUUUUUG — higher, -2
- GACCAAUCUGCCCUCAGAGCUCGAGAACAUCUUCGGAUGCAGAGGAGGCAGGCUUCGGUGCCGCGAUAUCGCCAACGUCCUCAACCUCCAAUGCAUCCCACCACAUGAUGAUGCCUGAAGAGCCUUGGUUUUUUG — higher, -1.37
- GACCAAUCUGCCCUCAGAGCUCGAGAACAUCUUCGGAUGCAGAGGAGGCAGGCUUCGGUGCCGCGAUAGCGCCAACCUUCUCAACCUCCAAUGCAUCCCACCACAUGAUGAUGCCUGAAGAGCCUUGGUUUUUUG — higher, -0.228
- GACCAAUCUGCCCUCAGAGCUCGAGAACAUCUUCGGAUGCAGAGGAGGCAGGCUUCGGUGCCGCGAUAGCGCCAACGUCCUCAACCUCCAAAGCAUCCCACCACAUGAUGAUGCCUGAAGAGCCUUGGUUUUUUG — higher, -4.11
- GACCAAUCUGCCCUCAGAGCUCGAGAACAUCUUCGGAUGCAGAGGAGGCAGGCUUCGGUGCCGCGAUAGCGCCAACGUCCUCAACCUCCAAUGCAUCCCACCACAUGAUGAUGCCUGAAGAGCCUUGCUUUUUUG — higher, -4.34
- GACCAAUCUGCCCUCAGAGCUCGAGAACAUCUUCGGAUGCAGAGGAGGCAGGCUUCGGUGCCGCGAUAGCGCCAACGUCCUCAACCUCCAAUGCAACCCACCACAUGAUGAUGCCUGAAGAGCCUUGGUUUUUUG — higher, -2.71
- GACCAAUCUGCCCUCAGAGCUCGAGAACAUCUUCGGAUGCAGAGGAGGCAGGCUUCGGUGCCGCGAUAGCGCCAACGUCCUCAACCACCAAUGCAUCCCACCACAUGAUCAUGCCUGAAGAGCCUUGGUUUUUUG — higher, -5.84
- GACCAAUCUGCCCUCAGAGCUCGAGAACAUCUUCGGAUGCAGAGGAGGCAGGCUUCGGUGCCGCGAUAGCGCCAACGUCCUCAACCUCCAAUGCAUCCCACCACAUGAUGACGCCUGAAGAGCCUUGGUUUUUUG — higher, 0.0988
- GACCAAUCUGCCCUCAGAGCUCGAGAACAUCUUCGGAUGCAGAGGAGGCAGGCUUCGGUGCCGCGAUAGCGCCAACGUCCUCAACCUCCAAUGCAUCCCACCACAUGAUGAGGCCUGAAGAGCCUUGGUUUUUUG — higher, -2.38
- GACCAAUCUGCCCUCAGAGCUCGAGAACAUCUUCGGAUGCAGAGGAGGCAGGCUUCGGUGCCGCGAUAGCGCCAACGUCCUCAACCUCCAAUGCAUCCCACCACAUGAUGAUGCCUGAAGAGCCUUGGUUUUUUU — higher, -2.53
- GACCAAUCUGCCCUCAGAGCUCGAGAACAUCUUCGGAUGCAGAGGAGGCAGGCUUCGGUGUCGCGAUAGCGCCGACGUCCUCAACCUCCAAUUCAUCCCACCACAUGAUGAUGCCUUAAGAGCCUUGGUUUUUUG — higher, -5.63
- GACCAAUCUGCCCUCAGAGCUCGAGAACAUCUUCGGAUGCAGAGGAGGCAGGCUUCGGUGCCGCGAUAGCGCCAACGUCCUCAACCUCCAAUCCAUCCCACCACAUGAUGAUGCCUGAAGAGCCUUGGUUUUUUG — higher, -3.2
- GACCAAUCUGCCCUCAGAGCUCGAGAACAUCUUCGGAUGCAGAGGAGGCAGGCUUCGGUGCCGCGAUAGCGCCAACAUCCUCAACCUCCAAUGCAUCCCACCACAUGAUGAUGCCUGAAGAGCCUUGGUUUUUUG — higher, -4.61
- GACCAAUCUGCCCUCAGAGCUCGAGAACAUCUUCGGAUGCAGAGGAGGCAGGCUUCGGUGCCGCGAUAGCGCCAACUUCCUCAACCUCCAAUGCAUCCCACCACAUGAUGAUGCCUGAAGAGCCUUGGUUUUUUG — higher, -1.86
- GACCAAUCUGCCCUCAGAGCUCGAGAACAUCUUCGGAUGCAGAGGAGGCAGGCUUCGGUGCCGCGAUAGCGCCAACGUCCUCAACCUCCAAUGCAUCCCACCACAUGAUGAUGCCUGAAGAGCCUUGGUUUAUUG — higher, -1.81
- GACCAAUCUGCCCUCAGAGCUCGAGAACAUCUUCGGAUGCAGAGGAGGCAGGCUUCGGUGCCGCGAUAGCGCCAACGUCCUCAACCUCCAAUGCAUCCCACCACAUGAUGAUGCCUGAAGAGCCUUGGUUAUUUG — higher, -2.31
- GACCAAUCUGCCCUCAGAGCUCGAGAACAUCUUCGGAUGCAGAGGAGGCAGGCUUCGGUGCCGCGAUAGCGCCAACGUCCUCAACCUCCAAUGCAUCCCACCACAUGAUGAUGCCUGAAGAGCAUUGGUUUUUUG — higher, -0.457
